Test results reported in article PMC10397247.
Each block holds one binder with its values, some of them ahead of it.

Columns and labels:
[1] = target: T1, P5SH; experiment: two-hybrid library CCNG1;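 also: natural log of median RNA to DNA barcode read ratio; higher means stronger binding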
T1 chain: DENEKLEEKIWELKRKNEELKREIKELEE

[2] = target: T2, P7SH; experiment: two-hybrid library CCNG1;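 also: natural log of median RNA to DNA barcode read ratio; higher means stronger binding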
T2 chain: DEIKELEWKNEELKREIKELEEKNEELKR

[3] = target: T3, P8SH; experiment: two-hybrid library CCNG1;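 also: natural log of median RNA to DNA barcode read ratio; higher means stronger binding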
T3 chain: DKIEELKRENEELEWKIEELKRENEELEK

[4] = target: T4, P4SH; experiment: two-hybrid library CCNG1;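 also: natural log of median RNA to DNA barcode read ratio; higher means stronger binding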
T4 chain: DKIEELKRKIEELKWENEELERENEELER

[5] = target: T5, P6SH; experiment: two-hybrid library CCNG1;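 also: natural log of median RNA to DNA barcode read ratio; higher means stronger binding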
T5 chain: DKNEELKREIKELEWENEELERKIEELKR

[6] = target: T6, 4H1350-AA; experiment: two-hybrid library CCmax; settings: mean of both orientations;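 also: natural log of median RNA to DNA barcode read ratio; higher means stronger binding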
T6 chain: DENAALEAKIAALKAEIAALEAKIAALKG

[7] = target: T7, 4H3940-AA; experiment: two-hybrid library CCmax; settings: mean of both orientations
T7 chain: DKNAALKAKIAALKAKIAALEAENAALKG

[8] = target: T8, 4H510-AA; experiment: two-hybrid library CCmax; settings: mean of both orientations
T8 chain: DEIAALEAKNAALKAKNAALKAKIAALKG

[9] = target: T9, 4H1710-AA; experiment: two-hybrid library CCmax; settings: mean of both orientations
T9 chain: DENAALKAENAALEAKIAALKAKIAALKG

[10] = target: T10, 4H121-AA; experiment: two-hybrid library CCmax
T10 chain: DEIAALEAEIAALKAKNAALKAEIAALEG

[11] = target: T11, 4H775-AA; experiment: two-hybrid library CCmax; settings: mean of both orientations
T11 chain: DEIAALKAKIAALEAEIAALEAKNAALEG

[12] = target: T12, 4H2758-AA; experiment: two-hybrid library CCmax; settings: mean of both orientations
T12 chain: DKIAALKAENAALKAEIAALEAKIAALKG

[13] = target: T13, 4H1985-AA; experiment: two-hybrid library CCmax; settings: mean of both orientations
T13 chain: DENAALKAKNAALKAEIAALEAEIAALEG

[14] = target: T14, 4H2873-AA; experiment: two-hybrid library CCmax; settings: mean of both orientations
T14 chain: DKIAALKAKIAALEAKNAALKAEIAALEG

[15] = target: T15, 4H2512-AA; experiment: two-hybrid library CCmax; settings: mean of both orientations
T15 chain: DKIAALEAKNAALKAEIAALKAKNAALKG

[16] = target: T16, 4H3409-AA; experiment: two-hybrid library CCmax; settings: mean of both orientations
T16 chain: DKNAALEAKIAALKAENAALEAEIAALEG

[17] = target: T17, 4H233-AA; experiment: two-hybrid library CCmax; settings: mean of both orientations
T17 chain: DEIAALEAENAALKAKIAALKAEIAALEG

[18] = target: T18, 4H2646-AA; experiment: two-hybrid library CCmax; settings: mean of both orientations
T18 chain: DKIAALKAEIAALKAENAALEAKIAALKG

[19] = target: T19, 4H2705-AA; experiment: two-hybrid library CCmax; settings: mean of both orientations
T19 chain: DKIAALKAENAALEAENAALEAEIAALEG

[20] = target: T20, 4H3134-AA; experiment: two-hybrid library CCmax; settings: mean of both orientations
T20 chain: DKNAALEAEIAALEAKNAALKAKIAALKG

[21] = target: T21, 4H2985-AA; experiment: two-hybrid library CCmax; settings: mean of both orientations
T21 chain: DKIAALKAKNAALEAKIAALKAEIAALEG

[22] = target: T22, 4H2687-AA; experiment: two-hybrid library CCmax; settings: mean of both orientations
T22 chain: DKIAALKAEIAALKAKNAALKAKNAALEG

[23] = target: T23, 4H816-AA; experiment: two-hybrid library CCmax; settings: mean of both orientations
T23 chain: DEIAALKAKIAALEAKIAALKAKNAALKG

[24] = target: T24, 4H3625-AA; experiment: two-hybrid library CCmax; settings: mean of both orientations
T24 chain: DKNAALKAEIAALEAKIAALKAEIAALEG

[25] = target: T25, 4H2187-AA; experiment: two-hybrid library CCmax; settings: mean of both orientations
T25 chain: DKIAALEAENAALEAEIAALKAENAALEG

[26] = target: T26, 4H278-AA; experiment: two-hybrid library CCmax; settings: mean of both orientations
T26 chain: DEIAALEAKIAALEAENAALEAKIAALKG

[27] = target: T27, 4H87-AA; experiment: two-hybrid library CCmax; settings: mean of both orientations
T27 chain: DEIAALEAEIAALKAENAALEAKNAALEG

[28] = target: T28, 4H390-AA; experiment: two-hybrid library CCmax; settings: mean of both orientations
T28 chain: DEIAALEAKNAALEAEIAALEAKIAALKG

interaction score [1]: -0.643 | interaction score [2]: -1.17 | interaction score [3]: -0.776 | interaction score [4]: -0.1 | interaction score [5]: -0.892
B1: P4SH (peptide)
chain: DKIEELKRKIEELKWENEELERENEELER

interaction score [6]: 0.484 | interaction score [7]: -0.784 | interaction score [8]: -1.47 | interaction score [9]: 0.228 | interaction score [10]: 0.829 | interaction score [11]: -0.904 | interaction score [12]: 0.775 | interaction score [13]: -1.39 | interaction score [14]: 0.239 | interaction score [15]: -1.66 | interaction score [16]: 0.672 | interaction score [17]: -0.289 | interaction score [18]: 2.21 | interaction score [19]: 0.603 | interaction score [20]: 0.777 | interaction score [21]: 0.209 | interaction score [22]: -0.303 | interaction score [23]: -0.458 | interaction score [24]: -0.876 | interaction score [25]: -0.0331 | interaction score [26]: 2.13 | interaction score [27]: 0.81 | interaction score [28]: 1.2
B2: 4H121-AA (peptide)
chain: DEIAALEAEIAALKAKNAALKAEIAALEG
